B1: LINE1-full (parent)
chain: UACGUAGGUGGUUUUCCCCUGAUAGUGCUAAGGGGGCCUGGAAGUUUGGACUGGGCAGAGCUCAACACAGCGUGGCAAAGUGGCUGUGGCUAGACUGCCUCUCUGGAUUCCUCGUCACUCAGCAGGGCAUCUCUGAGAGAAAUGCC

Variants of: B1
Assay: self-cleavage, relative activity (ratio to wild type); higher = more cleavage; in vitro, sequencing; the parent is a self-cleaving ribozyme

Variant	self-cleavage
A65U U73A	0.18
A64U U87G	0.11
A64U U87A	0.06
A64U G74A	0.3
C66U U85C	0.02
A64U C95U	0.07
A65G C110U	0.07
A64U A65U	0.02
A65G U91C	0
A67U A117U	0.1
A67G G88A	0.05
A64G U96A	0.07
A67G A121U	0.51
A67G A121G	0.53
C66U A138U	0.03
A67U U85C	0.01
C66G A117G	0.08
A67C C110A	0.05
A65U G114A	0.19
A65G C90U	0.03
A67G U143G	0.37
C66U U100C	0.07
A67U A94U	0.05
A67G U102C	0.58

Variant	self-cleavage
A67G U102A	0.99
C66A A141G	0.04
A64U A129G	0.66
A64U A129U	0.46
A67C G72U	0.06
A67G A69G	0.31
A65G A92G	0.09
A65G A92C	0
A65G A92U	0.1
A65G U115C	0.05
A65G U115A	0.04
A67G C133A	0.41
A65G C84G	0.17
A65G C84U	0.06
A67U U87C	0.21
A64G U132A	0.34
A64G U132C	0.39
A67C U87A	0.05
A65U G82U	0.15
A65G A121C	0.07
A65G A121U	0.04
A67G G122A	0.54
C66U A142G	0.05
C66U A69G	0.06

Variant	self-cleavage
A65G U73G	0.08
A67G C99U	0.27
A65U A121U	0.24
A67C U108C	0
A65C A79G	0
A67G U91C	0.16
A64U G82A	0.65
A67G C84U	0.04
A67G C84G	0.04
A65G A79G	0.09
A65G U87C	0.16
A65G U87A	0.06
A67G G89U	0.02
A67U G105U	0.12
A65G U104A	0.05
A65U G127A	0.68
A65U G97A	0.04
A67G C111A	0.58
A67G C111U	0.54
A65G G97A	0.03
A64G U130A	0.28
A64G U130C	0.33
A65U C146U	0.16
A67U U119C	0.19

Variant	self-cleavage
A67G	0.5
A67C	0.06
A67U	0.11
A65U A117G	0.24
A65G U100A	0.09
A65G U100C	0.06
A64G U115C	0.27
A67G A129G	0.45
A67G A129U	0.04
A67U U115C	0.34
A67G C131U	0.56
A64U C133U	0.49
A64U U96A	0.06
A64G U134C	0.28
A65U U115C	0.26
A64U A124G	0.3
A64U A124U	0.38
A65U U104C	0.52
A65G G126A	0.02
A64G U104A	0.32
A65G A94G	0.03
A64U G127C	0.6
A67G A142C	0.93
A67G A142G	0.46

Variant	self-cleavage
A67U A136G	0.2
A67U A136U	0.12
A65G A107G	0.03
A64U U73A	0.21
A64U U73C	0.58
A67G G137A	0.64
A65G U96C	0.08
A65U G125A	0.21
A67C A117C	0.03
A65G A141C	0.38
A64U A107G	0.45
A65U A79G	0.21
A65U U91C	0.08
A65U U91G	0.06
A67U U104C	0.25
A67U U104A	0.03
A65U U100C	0.16
C66U U134C	0.06
A67U U73C	0.18
A67G A94G	0.09
A65C G97A	0.04
A67C U102C	0.04
A65G G135A	0.1
A65G U108C	0.07

Variant	self-cleavage
A65G U108A	0.04
A67G A117U	0.53
A67G A117G	0.52
A67U U112A	0.13
A64U U108C	0.65
A65G A129C	0.02
A65C G105U	0.03
A67C A141G	0.12
A65G A124G	0.07
A65G A124U	0.04
A65G C68A	0.04
A67C U96C	0.12
A67G C68A	0.05
C66U U109A	0.03
A65C U119A	0
A65G A117G	0.08
A67G G93A	0.02
A67G G93U	0.11
A65G G74A	0.01
C66U A124G	0.03
A67C C123A	0.07
A67U G74A	0.08
A65U U96C	0.02
A67U C128U	0.1

Variant	self-cleavage
A65G G127C	0.06
A65G G127U	0.04
A64U G80U	0.47
A67U G75A	0.09
A64U A117G	0.53
A64U G106U	0.34
A67U A79U	0.21
A67U A79G	0.18
A64U G125U	0.41
A64U G125A	0.34
A65U A92G	0.03
A65G C71U	0.03
A67G A79C	0.48
A67G A79U	0.73
A65U A138G	0.24
A67U A77G	0.17
A67U A77U	0.04
A64U C116A	0.37
A65G U112C	0.1
A64U U119A	0.34
A64U C111A	0.35
A65U U119A	0.21
A67G A140U	0.56

— the RNAGym collection of RNA variant scans (doi:10.7554/elife.90254)
